Measured values reported in patent US20260209386A1 (MYTHIC THERAPEUTICS, published 2026).
Substitutions are numbered along the chain they refer to.

B1: MYT10888 (antibody, V domains shown)
VH: EVQLVESGGGLVQPGGSLRLSCTASGFSHSNYVMNWVRQAPGKGLEWVGIIDSSGSTYYASWAKGRFTISRDTSKNTVYLQMNSLRAEDTAVYFCARGLYLWGQGTLVTVSS
VL: EIVMTQSPSTLSASVGDRVIITCQSSQSVYNNNLLAWYQQKPGKAPKLLIYYTSNLASGVPSRFSGSGSGAEFTLTISSLQPDDFATYYCQGGYNGNIYAFGQGTKLTVL
notes: IgG
B2: MYT10889 (antibody, V domains shown)
VH: B1 VH with H29L, S30H
VL: B1 VL
notes: IgG
B3: MYT10891 (antibody, V domains shown)
VH: B1 VH with H29L, Y32H
VL: B1 VL
notes: IgG
B4: MYT10895 (antibody, V domains shown)
VH: B1 VH with H29L, I50H
VL: B1 VL
notes: IgG
B5: MYT10896 (antibody, V domains shown)
VH: B1 VH with H29L, I51H
VL: B1 VL
notes: IgG
B6: MYT10897 (antibody, V domains shown)
VH: B1 VH with H29L, D52H
VL: B1 VL
notes: IgG
B7: MYT10898 (antibody, V domains shown)
VH: B1 VH with H29L, S53H
VL: B1 VL
notes: IgG
B8: MYT10903 (antibody, V domains shown)
VH: B1 VH with H29L, Y58H
VL: B1 VL
notes: IgG
B9: MYT10905 (antibody, V domains shown)
VH: B1 VH with H29L, A60H
VL: B1 VL
notes: IgG
B10: MYT10911 (antibody, V domains shown)
VH: B1 VH with H29L, A96H
VL: B1 VL
notes: IgG
B11: MYT10916 (antibody, V domains shown)
VH: B1 VH with H29L, L101H
VL: B1 VL
notes: IgG
B12: MYT10920 (antibody, V domains shown)
VH: B1 VH with H29L
VL: B1 VL with S25H
notes: IgG
B13: MYT10925 (antibody, V domains shown)
VH: B1 VH with H29L
VL: B1 VL with Y30H
notes: IgG
B14: MYT10926 (antibody, V domains shown)
VH: B1 VH with H29L
VL: B1 VL with N31H
notes: IgG
B15: MYT10927 (antibody, V domains shown)
VH: B1 VH with H29L
VL: B1 VL with N32H
notes: IgG
B16: MYT10928 (antibody, V domains shown)
VH: B1 VH with H29L
VL: B1 VL with N33H
notes: IgG
B17: MYT10930 (antibody, V domains shown)
VH: B1 VH with H29L
VL: B1 VL with L35H
notes: IgG
B18: MYT10935 (antibody, V domains shown)
VH: B1 VH with H29L
VL: B1 VL with N55H
notes: IgG
B19: MYT10936 (antibody, V domains shown)
VH: B1 VH with H29L
VL: B1 VL with L56H
notes: IgG
B20: MYT10937 (antibody, V domains shown)
VH: B1 VH with H29L
VL: B1 VL with A57H
notes: IgG
B21: MYT10939 (antibody, V domains shown)
VH: B1 VH with H29L
VL: B1 VL with Q91H
notes: IgG
B22: MYT10942 (antibody, V domains shown)
VH: B1 VH with H29L
VL: B1 VL with Y94H
notes: IgG
B23: MYT10943 (antibody, V domains shown)
VH: B1 VH with H29L
VL: B1 VL with N95H
notes: IgG
B24: MYT10944 (antibody, V domains shown)
VH: B1 VH with H29L
VL: B1 VL with G96H
notes: IgG
B25: MYT10946 (antibody, V domains shown)
VH: B1 VH with H29L
VL: B1 VL with I98H
notes: IgG
B26: MYT10949 (antibody, V domains shown)
VH: B1 VH with H29L
VL: B1 VL with T108E, V109I, L110K
notes: IgG
B27: MYT10951 (antibody, V domains shown)
VH: EVQLVESGGGLVQPGGSLRLSCTASHFSLSSYAMGWVRQAPGKGLEWVGFINAGGNTYYANWAKGRFTISRDTSKNTVYLQMNSLRAEDTAVYFCARRYSRASGWYDLWGQGTLVTVSS
VL: EIVMTQSPSTLSASVGDRVIITCQASQSISSYLAWYQQKPGKAPKLLIYAASTLASGVPSRFSGSGSGAEFTLTISSLQPDDFATYYCQSYSYSSGIDYGDVFGQGTKLTVL
notes: IgG
B28: MYT10957 (antibody, V domains shown)
VH: B27 VH with H26G, Y32H
VL: B27 VL
notes: IgG
B29: MYT10959 (antibody, V domains shown)
VH: B27 VH with H26G, M34H
VL: B27 VL
notes: IgG
B30: MYT10962 (antibody, V domains shown)
VH: B27 VH with H26G, I51H
VL: B27 VL
notes: IgG
B31: MYT10963 (antibody, V domains shown)
VH: B27 VH with H26G, N52H
VL: B27 VL
notes: IgG
B32: MYT10966 (antibody, V domains shown)
VH: B27 VH with H26G, G55H
VL: B27 VL
notes: IgG
B33: MYT10969 (antibody, V domains shown)
VH: B27 VH with H26G, Y58H
VL: B27 VL
notes: IgG
B34: MYT10970 (antibody, V domains shown)
VH: B27 VH with H26G, Y59H
VL: B27 VL
notes: IgG
B35: MYT10974 (antibody, V domains shown)
VH: B27 VH with H26G, A63H
VL: B27 VL
notes: IgG
B36: MYT10978 (antibody, V domains shown)
VH: B27 VH with H26G, R97H
VL: B27 VL
notes: IgG
B37: MYT10980 (antibody, V domains shown)
VH: B27 VH with H26G, Y99H
VL: B27 VL
notes: IgG
B38: MYT10993 (antibody, V domains shown)
VH: B27 VH with H26G
VL: B27 VL with A25H
notes: IgG
B39: MYT10997 (antibody, V domains shown)
VH: B27 VH with H26G
VL: B27 VL with I29H
notes: IgG
B40: MYT10998 (antibody, V domains shown)
VH: B27 VH with H26G
VL: B27 VL with S30H
notes: IgG

What follows are binders tested against T1, Human PTK7/CCK4 Protein, His Tag, Acro Biosystems PT7-H52H3 (human, UniProt Q13308 31-704) (assay: BLI, antibody on anti-human Fc sensor, 50 nM PTK7).
T1 construct: bought protein; also called Human PTK7 Protein, His Tag, Acro Biosystems; not shown: His tag
T1 sequence: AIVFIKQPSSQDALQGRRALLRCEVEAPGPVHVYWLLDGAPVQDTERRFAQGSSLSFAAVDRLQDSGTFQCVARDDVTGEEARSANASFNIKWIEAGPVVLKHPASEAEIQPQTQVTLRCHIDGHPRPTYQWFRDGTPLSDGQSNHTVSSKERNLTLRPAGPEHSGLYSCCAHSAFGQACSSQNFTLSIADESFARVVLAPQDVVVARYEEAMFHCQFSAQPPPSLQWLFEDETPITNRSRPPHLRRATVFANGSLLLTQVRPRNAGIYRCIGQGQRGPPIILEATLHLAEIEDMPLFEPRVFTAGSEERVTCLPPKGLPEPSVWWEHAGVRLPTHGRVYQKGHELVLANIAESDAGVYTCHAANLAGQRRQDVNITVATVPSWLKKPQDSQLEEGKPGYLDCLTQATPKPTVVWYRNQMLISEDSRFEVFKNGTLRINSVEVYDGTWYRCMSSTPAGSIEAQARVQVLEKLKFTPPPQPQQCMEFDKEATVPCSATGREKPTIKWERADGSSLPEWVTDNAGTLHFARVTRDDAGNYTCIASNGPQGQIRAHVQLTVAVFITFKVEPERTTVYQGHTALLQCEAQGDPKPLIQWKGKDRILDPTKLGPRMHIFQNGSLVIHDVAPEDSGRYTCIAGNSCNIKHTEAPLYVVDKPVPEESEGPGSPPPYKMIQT

Binder	binding result
B1	binds
B2	binds
B3	binds
B4	binds
B5	binds
B6	binds
B7	binds
B8	binds
B9	binds
B10	binds
B11	binds
B12	binds
B13	binds
B14	binds
B15	binds
B16	binds
B17	binds
B18	binds
B19	binds
B20	binds

Binder	binding result
B21	binds
B22	binds
B23	binds
B24	binds
B25	binds
B26	binds
B27	binds
B28	binds
B29	binds
B30	binds
B31	binds
B32	binds
B33	binds
B34	binds
B35	binds
B36	binds
B37	binds
B38	binds
B39	binds
B40	binds
